# According to article doi:10.1101/547208, “A single dose of antibody-1 drug conjugate cures a stage model of African trypanosomiasis” (bioRxiv, 2019):
# B1: Tb017 scFv (scFv, V domains shown)
# VH: QVQLVQSGAEVKKPGSSVKVSCKASGGTFSSYAISWVRQAPGQGLEWMGGIIPIFGTANYAQKFQGRVTITADESTSTAYMELSSLRSEDTAVYYCARGWWYDLVFDYWGQGTLVTVSS
# VL: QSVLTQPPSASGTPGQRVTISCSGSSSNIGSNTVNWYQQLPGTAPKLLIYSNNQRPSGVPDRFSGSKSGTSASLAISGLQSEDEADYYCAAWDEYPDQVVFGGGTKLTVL
# notes: The name Tb017 is printed for the IgG1 and its conjugate; source: phage produced from E. coli, phage-containing supernatant
# B2: Tb086 scFv (scFv, V domains shown)
# VH: QVQLVQSGAEVKKPGSSVKVSCKASGGTFSSYAISWVRQAPGQGLEWMGGIIPIFGTANYAQKFQGRVTITADESTSTAYMELSSLRSEDTAVYYCARGWYYHGGIDYWGQGTLVTVSS
# VL: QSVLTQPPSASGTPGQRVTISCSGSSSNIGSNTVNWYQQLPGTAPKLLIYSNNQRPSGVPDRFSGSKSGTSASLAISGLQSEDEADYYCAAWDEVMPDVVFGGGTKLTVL
# notes: The name Tb086 is printed for the IgG1; source: phage produced from E. coli, phage-containing supernatant
# B3: Tb085 scFv (scFv, V domains shown)
# VH: QVQLVQSGAEVKKPGSSVKVSCKASGGTFSSYAISWVRQAPGQGLEWMGGIIPIFGTANYAQKFQGRVTITADESTSTAYMELSSLRSEDTAVYYCAREGWDYGWFDFWGQGTLVTVSS
# VL: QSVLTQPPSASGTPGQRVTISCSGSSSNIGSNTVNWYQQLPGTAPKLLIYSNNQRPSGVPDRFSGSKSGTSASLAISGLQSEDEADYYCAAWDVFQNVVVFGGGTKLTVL
# notes: The name Tb085 is printed for the IgG1 and its conjugates; source: phage produced from E. coli, phage-containing supernatant
# B4: Tb074 scFv (scFv, V domains shown)
# VH: QVQLVQSGAEVKKPGSSVKVSCKASGGTFSSYAISWVRQAPGQGLEWMGGIIPIFGTANYAQKFQGRVTITADESTSTAYMELSSLRSEDTAVYYCARGWWHEPGFDYWGQGTLVTVSS
# VL: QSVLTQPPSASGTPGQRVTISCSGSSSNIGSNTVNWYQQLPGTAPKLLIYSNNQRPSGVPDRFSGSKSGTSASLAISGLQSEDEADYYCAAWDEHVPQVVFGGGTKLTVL
# notes: The name Tb074 is printed for the IgG1 and its conjugates; source: phage produced from E. coli, phage-containing supernatant
# B5: Tb073 scFv (scFv, V domains shown)
# VH: QVQLVQSGAEVKKPGSSVKVSCKASGGTFSSYAISWVRQAPGQGLEWMGGIIPIFGTANYAQKFQGRVTITADESTSTAYMELSSLRSEDTAVYYCARGWYDMGDFDMWGQGTLVTVSS
# VL: QSVLTQPPSASGTPGQRVTISCSGSSSNIGSNTVNWYQQLPGTAPKLLIYSNNQRPSGVPDRFSGSKSGTSASLAISGLQSEDEADYYCAAWDWHHGHVVVFGGGTKLTVL
# notes: The name Tb073 is printed for the IgG1 and its conjugate; source: phage produced from E. coli, phage-containing supernatant
# B6: Tb078 scFv (scFv, V domains shown)
# VH: QVQLVQSGAEVKKPGSSVKVSCKASGGTFSSYAISWVRQAPGQGLEWMGGIIPIFGTANYAQKFQGRVTITADESTSTAYMELSSLRSEDTAVYYCARGWIYEFIIDAWGQGTLVTVSS
# VL: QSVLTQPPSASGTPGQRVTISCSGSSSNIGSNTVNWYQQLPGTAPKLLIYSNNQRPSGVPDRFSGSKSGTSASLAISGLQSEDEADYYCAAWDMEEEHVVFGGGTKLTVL
# notes: The name Tb078 is printed for the IgG1 and its conjugate; source: phage produced from E. coli, phage-containing supernatant
# Target: T1, Recombinant HpHbR N-terminal domain (Trypanosoma brucei brucei (strain not …, biotin (biotinylated form on streptavidin-coated plates; a non-biotinylated form was coated on Maxisorp plates))
# T1 construct: also called HpHbR NTD; TbHpHbR NTD; source: recombinant, expressed as previously described (34)
# Assay: ELISA; phage ELISA: 10 ug/ml HpHbR NTD coated on Nunc Maxisorp plates or 5 ug/mL biotinylated NTD on streptavidin-coated plates overnight at 4°C; blocked phage supernatants 1 hr at room temperature; bound phage detected with anti-M13 HRP antibody; BSA and streptavidin in parallel
# Settings: one partner purified
row,Binder,binding result
1,B1,binds
2,B2,binds
3,B3,binds
4,B4,binds
5,B5,binds
6,B6,binds
